A word on the stoichiometry N: it is a count of units in the complex or per binding partner.

In this experiment the target is Helicobacter pylori CbpA, wild type, carboxyl-terminal His-tagged (H. pylori (strain G27)). Description: cross-linking; 5 uM purified protein with 0, 0.0025, 0.005 and 0.01% glutaraldehyde in 1x binding buffer (10 mM Tris-HCl pH 8.0, 50 mM NaCl, 10 mM KCl, 5 mM MgCl2, 0.1 mM DTT, 0.01% NP40), 1 hour at 25 °C; SDS-PAGE, Coomassie staining.

For the substance “Helicobacter pylori CbpA, wild type, carboxyl-terminal His-tagged (natural protein)”, the stoichiometry N turned out to be 2.

Values taken from paper PMC7074700.
